Results: paper PMC3669286

Biological target: Smad3 (UniProt P84022)
Test: co-immunoprecipitation, blot for 14-3-3σ
Details: reference: wild type; sites S69,S74

14-3-3σ (from UniProt P31947) S69/74A
binding against the reference: lost
